# Ends that are not written are not given here.
# Molecular target: major capsid protein (p24) of HIV-1 (HIV-1 (SF-2), UniProt P03349)
# Experiment: cell-based or functional assay
row,Binder,"antiviral inhibitory activity as determined by p24 production and RT activity in the culture supernatants (H9 cells, HIV-1 SF-2, 100 µM peptide) [%]"
1,Glu-Pro-Phe-NH2 [Glu-Pro-Phe-NH2],> 80
2,Thr-Leu-Glu-NH2 [Thr-Leu-Glu-NH2],> 80
3,Pro-Lys-Glu-NH2 [Pro-Lys-Glu-NH2],> 80
4,Arg-Val-Leu-NH2 [Arg-Val-Leu-NH2],> 80

# Source: patent publication US20030060599A1, “Tripeptide amides that block viral infectivity and methods of use thereof” (published 2003)
